# Experimental data reported in patent publication US20200297818A1 (ZEALAND PHARMA A S, published 2020).
# T1: human GLP-2 receptor (hGLP2-R) (human, UniProt O95838 1-553)
# T1 sequence (looked up): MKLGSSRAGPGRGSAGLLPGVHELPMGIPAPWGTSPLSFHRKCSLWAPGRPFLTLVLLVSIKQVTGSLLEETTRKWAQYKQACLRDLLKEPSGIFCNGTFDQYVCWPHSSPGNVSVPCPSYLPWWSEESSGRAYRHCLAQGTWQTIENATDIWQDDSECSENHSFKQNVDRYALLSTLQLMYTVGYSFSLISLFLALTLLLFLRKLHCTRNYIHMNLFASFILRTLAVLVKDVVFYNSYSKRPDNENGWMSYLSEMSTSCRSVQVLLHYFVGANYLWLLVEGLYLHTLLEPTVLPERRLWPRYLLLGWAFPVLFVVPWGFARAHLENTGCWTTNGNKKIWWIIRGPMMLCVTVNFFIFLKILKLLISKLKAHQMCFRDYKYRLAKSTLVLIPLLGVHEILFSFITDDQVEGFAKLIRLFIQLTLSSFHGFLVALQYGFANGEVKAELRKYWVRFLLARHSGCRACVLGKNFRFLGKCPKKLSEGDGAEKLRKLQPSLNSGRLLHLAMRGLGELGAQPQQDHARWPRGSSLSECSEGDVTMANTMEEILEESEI
# Tests used:
# [1] = biological target: human glucagon-like peptide 1 receptor (GLP-1 R) (human, UniProt P43220 24-463); assay: cell-based or functional assay
# [2] = biological target: T1, human GLP-2 receptor (hGLP2-R); assay: cell-based or functional assay
EC50 GLP-1 (nM); cAMP response [1] [nM],EC50 GLP-2 (nM); cAMP response [2] [nM],Binder
0.073,0.68,"HXEGTFTSELATILDXEAARLFIAWLIEHKITD (HELM PEPTIDE1{H.[Aib].E.G.T.F.T.S.E.L.A.T.I.L.D.K.E.A.A.R.L.F.I.A.W.L.I.E.H.K.I.T.D}|PEPTIDE2{[O=C(O)CCCCCCCCCCCCCCCCC(=O)[*:2]].[gGlu]}$PEPTIDE1,PEPTIDE2,16:R3-2:R2$$$V2.0; SMILES CC[C@H](C)[C@H](NC(=O)[C@H](Cc1ccccc1)NC(=O)[C@H](CC(C)C)NC(=O)[C@H](CCCNC(=N)N)NC(=O)[C@H](C)NC(=O)[C@H](C)NC(=O)[C@H](CCC(=O)O)NC(=O)[C@H](CCCCNC(=O)CC[C@H](NC(=O)CCCCCCCCCCCCCCCCC(=O)O)C(=O)O)NC(=O)[C@H](CC(=O)O)NC(=O)[C@H](CC(C)C)NC(=O)[C@@H](NC(=O)[C@@H](NC(=O)[C@H](C)NC(=O)[C@H](CC(C)C)NC(=O)[C@H](CCC(=O)O)NC(=O)[C@H](CO)NC(=O)[C@@H](NC(=O)[C@H](Cc1ccccc1)NC(=O)[C@@H](NC(=O)CNC(=O)[C@H](CCC(=O)O)NC(=O)C(C)(C)NC(=O)[C@@H](N)Cc1c[nH]cn1)[C@@H](C)O)[C@@H](C)O)[C@@H](C)O)[C@@H](C)CC)C(=O)N[C@@H](C)C(=O)N[C@@H](Cc1c[nH]c2ccccc12)C(=O)N[C@@H](CC(C)C)C(=O)N[C@H](C(=O)N[C@@H](CCC(=O)O)C(=O)N[C@@H](Cc1c[nH]cn1)C(=O)N[C@@H](CCCCN)C(=O)N[C@H](C(=O)N[C@H](C(=O)N[C@@H](CC(=O)O)C(=O)O)[C@@H](C)O)[C@@H](C)CC)[C@@H](C)CC) [Compound 16]"
0.19,0.21,"HXEGSFTSELATILDXQAARDFIAWLIQHKITD (HELM PEPTIDE1{H.[Aib].E.G.S.F.T.S.E.L.A.T.I.L.D.K.Q.A.A.R.D.F.I.A.W.L.I.Q.H.K.I.T.D}|PEPTIDE2{[O=C(O)CCCCCCCCCCCCCCCCC(=O)[*:2]].[gGlu]}$PEPTIDE1,PEPTIDE2,16:R3-2:R2$$$V2.0; SMILES CC[C@H](C)[C@H](NC(=O)[C@H](Cc1ccccc1)NC(=O)[C@H](CC(=O)O)NC(=O)[C@H](CCCNC(=N)N)NC(=O)[C@H](C)NC(=O)[C@H](C)NC(=O)[C@H](CCC(N)=O)NC(=O)[C@H](CCCCNC(=O)CC[C@H](NC(=O)CCCCCCCCCCCCCCCCC(=O)O)C(=O)O)NC(=O)[C@H](CC(=O)O)NC(=O)[C@H](CC(C)C)NC(=O)[C@@H](NC(=O)[C@@H](NC(=O)[C@H](C)NC(=O)[C@H](CC(C)C)NC(=O)[C@H](CCC(=O)O)NC(=O)[C@H](CO)NC(=O)[C@@H](NC(=O)[C@H](Cc1ccccc1)NC(=O)[C@H](CO)NC(=O)CNC(=O)[C@H](CCC(=O)O)NC(=O)C(C)(C)NC(=O)[C@@H](N)Cc1c[nH]cn1)[C@@H](C)O)[C@@H](C)O)[C@@H](C)CC)C(=O)N[C@@H](C)C(=O)N[C@@H](Cc1c[nH]c2ccccc12)C(=O)N[C@@H](CC(C)C)C(=O)N[C@H](C(=O)N[C@@H](CCC(N)=O)C(=O)N[C@@H](Cc1c[nH]cn1)C(=O)N[C@@H](CCCCN)C(=O)N[C@H](C(=O)N[C@H](C(=O)N[C@@H](CC(=O)O)C(=O)O)[C@@H](C)O)[C@@H](C)CC)[C@@H](C)CC) [Compound 18]"

# Further lines, the binder ahead of its results:
Binder,EC50 GLP-1 (nM); cAMP response [1] [nM],EC50 GLP-2 (nM); cAMP response [2] [nM]
"HXEGTFTSELATILDXQAARDFIAWLIQHKITD (HELM PEPTIDE1{H.[Aib].E.G.T.F.T.S.E.L.A.T.I.L.D.K.Q.A.A.R.D.F.I.A.W.L.I.Q.H.K.I.T.D}|PEPTIDE2{[O=C(O)CCCCCCCCCCCCCCCCC(=O)[*:2]].[gGlu]}$PEPTIDE1,PEPTIDE2,16:R3-2:R2$$$V2.0; SMILES CC[C@H](C)[C@H](NC(=O)[C@H](Cc1ccccc1)NC(=O)[C@H](CC(=O)O)NC(=O)[C@H](CCCNC(=N)N)NC(=O)[C@H](C)NC(=O)[C@H](C)NC(=O)[C@H](CCC(N)=O)NC(=O)[C@H](CCCCNC(=O)CC[C@H](NC(=O)CCCCCCCCCCCCCCCCC(=O)O)C(=O)O)NC(=O)[C@H](CC(=O)O)NC(=O)[C@H](CC(C)C)NC(=O)[C@@H](NC(=O)[C@@H](NC(=O)[C@H](C)NC(=O)[C@H](CC(C)C)NC(=O)[C@H](CCC(=O)O)NC(=O)[C@H](CO)NC(=O)[C@@H](NC(=O)[C@H](Cc1ccccc1)NC(=O)[C@@H](NC(=O)CNC(=O)[C@H](CCC(=O)O)NC(=O)C(C)(C)NC(=O)[C@@H](N)Cc1c[nH]cn1)[C@@H](C)O)[C@@H](C)O)[C@@H](C)O)[C@@H](C)CC)C(=O)N[C@@H](C)C(=O)N[C@@H](Cc1c[nH]c2ccccc12)C(=O)N[C@@H](CC(C)C)C(=O)N[C@H](C(=O)N[C@@H](CCC(N)=O)C(=O)N[C@@H](Cc1c[nH]cn1)C(=O)N[C@@H](CCCCN)C(=O)N[C@H](C(=O)N[C@H](C(=O)N[C@@H](CC(=O)O)C(=O)O)[C@@H](C)O)[C@@H](C)CC)[C@@H](C)CC) [Compound 19]",0.066,0.23
"HXEGTFSSELATILDXQAARDFIAWLIQHKITD (HELM PEPTIDE1{H.[Aib].E.G.T.F.S.S.E.L.A.T.I.L.D.K.Q.A.A.R.D.F.I.A.W.L.I.Q.H.K.I.T.D}|PEPTIDE2{[O=C(O)CCCCCCCCCCCCCCCCC(=O)[*:2]].[gGlu]}$PEPTIDE1,PEPTIDE2,16:R3-2:R2$$$V2.0; SMILES CC[C@H](C)[C@H](NC(=O)[C@H](Cc1ccccc1)NC(=O)[C@H](CC(=O)O)NC(=O)[C@H](CCCNC(=N)N)NC(=O)[C@H](C)NC(=O)[C@H](C)NC(=O)[C@H](CCC(N)=O)NC(=O)[C@H](CCCCNC(=O)CC[C@H](NC(=O)CCCCCCCCCCCCCCCCC(=O)O)C(=O)O)NC(=O)[C@H](CC(=O)O)NC(=O)[C@H](CC(C)C)NC(=O)[C@@H](NC(=O)[C@@H](NC(=O)[C@H](C)NC(=O)[C@H](CC(C)C)NC(=O)[C@H](CCC(=O)O)NC(=O)[C@H](CO)NC(=O)[C@H](CO)NC(=O)[C@H](Cc1ccccc1)NC(=O)[C@@H](NC(=O)CNC(=O)[C@H](CCC(=O)O)NC(=O)C(C)(C)NC(=O)[C@@H](N)Cc1c[nH]cn1)[C@@H](C)O)[C@@H](C)O)[C@@H](C)CC)C(=O)N[C@@H](C)C(=O)N[C@@H](Cc1c[nH]c2ccccc12)C(=O)N[C@@H](CC(C)C)C(=O)N[C@H](C(=O)N[C@@H](CCC(N)=O)C(=O)N[C@@H](Cc1c[nH]cn1)C(=O)N[C@@H](CCCCN)C(=O)N[C@H](C(=O)N[C@H](C(=O)N[C@@H](CC(=O)O)C(=O)O)[C@@H](C)O)[C@@H](C)CC)[C@@H](C)CC) [Compound 17]",0.9,0.33
